Results reported in patent US20170095512A1, “METHODS OF INDUCING MYELINATION AND MATURATION OF OLIGODENDROCYTES” (KADIMASTEM LTD., priority 2014, published 2017).

Legend:
[1] = tested on: glial progenitor cells derived from human ES cells (Olig2 positive cells); experiment: hOPC differentiation assay, Olig2 positive cells (immunostaining, high content screening); format: cell-based; details: days 21, 28, 35, 42; noggin 100 ng/ml; LDN-193189 62.5 nM and 125 nM
Description: In order to initiate differentiation 20,000 GPCs were seeded in each well of Matrigel coated plates of 96 wells, or on PolyD-Lysine/laminin (PDL/lam)-coated 96 well plates. Cells were grown in GM media for two to three days. Then GM was replaced by differentiation medium without growth factors, (DMEM/F12, 1% B27, 0.5% N2, Vitamin C (Sigma, 50 ug/ml). Differentiation medium was supplemented with the following tested compounds: […] All media were replaced every other day. The oligodendrocyte lineage cells were characterized by the expression of a transcription factor olig2. The rabbit polyclonal AB anti olig2 (Millipore cat AB9610) was added to PFA fixed cells. […] ArrayScan VTI HCS reader system (Cellomis, Thermo-scientific) was used for scanning at least 20 fields for each tested well under 10× objective in both assays (differentiation and myelination). […] For myelination assay, the same morphological parameters were tested and in addition: areas of myelinated axons in pixels (MBP&NF overlap area) and Number of myelinated regions (MBP&NF overlap count) were also analyzed. […] The 4-parameter Hill-Slope curve fittings were generated by GraphPad Prism software using least squares fitting method and EC50 values were calculated. […] Time points used for analysis are 21, 28, 35 and 42 days of differentiation, for each time point 20 fields were analyzed. […]

[2] = tested on: hPSC derived oligodendrocytes co-cultured with rodent dorsal root ganglia neurons (MBP+ cells); experiment: Co-culture myelination assay (human oligodendrocytes with DRG neurons), MBP staining; format: cell-based; details: 14 days co-culture; Noggin 50 ng/ml; LDN-193189 125 nM
Description: ArrayScan VTI HCS reader system (Cellomis, Thermo-scientific) was used for scanning at least 20 fields for each tested well under 10× objective in both assays (differentiation and myelination). Cellomics Neural profiling bio-application was used for processing and analyzing the images. For differentiation assay, the following parameters were tested: number and percentage of O4+ cells, number of processes, processes length and number of branching points. For myelination assay, the same morphological parameters were tested and in addition: areas of myelinated axons in pixels (MBP&NF overlap area) and Number of myelinated regions (MBP&NF overlap count) were also analyzed. Modifications in the Neuro-profiling bio-application were conducted for this specific purpose. T-test analysis was used to compare between treatments. The 4-parameter Hill-Slope curve fittings were generated by GraphPad Prism software using least squares fitting method and EC50 values were calculated. […]
For testing maturation and myelination capacity of the hPSC derived oligodendrocytes, a co-culture system between rodent dorsal root ganglia (DRGs) and hPSCs derived oligodendrocytes was used. The number of MBP+ cells (MBP, a marker of oligodendrocytes' myelin) and Myelin formation (measured by co-localization area between MBP and neurofilament positive neuronal axons) was quantified.

B1: Noggin: the inhibitor of BMP signaling noggin (R&D) (protein, UniProt Q13253 28-232, looked up)
Noggin: QHYLHIRPAPSDNLPLVDLIEHPDPIFDPKEKDLNETLLRSLLGGHYDPGFMATSPPEDRPGGGGGAAGGAEDLAELDQLLRQRPSGAMPSEIKGLEFSEGLAQGKKQRLSKKLRRKLQMWLWSQTFCPVLYAWNDLGSRFWPRYVKVGSCFSKRSCSVPEGMVCKPSKSVHLTVLRWRCQRRGGQRCGWIPIQYPIISECKCSC
In the case of B1, the “conversion of neural stem cells to Olig2 positive cells” value [1] is reported as “stimulate the conversion of neural stem cells to Olig2 positive cells” and the Myelin fibers [2] is reported as “Myelin fibers are observed”.
